Data from publication PMC7599583 (Viruses, 2020).
Where “and” joins values, the source holds several entries; their conditions need not be identical. Identical values can stand only once.

Assays:
[1] = biological target: T1, Human adenovirus serotype 7 fiber knob, His-tagged (His-HAd7K), wild type (human adenovirus serotype 7 (HAdV7), …); experiment: cryo-EM structure; settings: both partners purified
T1 chain: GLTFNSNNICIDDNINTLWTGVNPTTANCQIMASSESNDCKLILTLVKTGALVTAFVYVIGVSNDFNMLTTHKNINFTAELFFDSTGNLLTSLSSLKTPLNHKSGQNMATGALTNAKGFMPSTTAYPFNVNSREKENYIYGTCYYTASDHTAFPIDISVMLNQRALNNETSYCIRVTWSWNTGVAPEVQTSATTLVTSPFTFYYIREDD

[2] = biological target: T2, Human adenovirus serotype 7 fiber knob, His-tagged (His-HAd7K), wild type (human adenovirus serotype 7 (HAdV7), …, N-glycosylated (sugars almost 15% of the total mass by mass spectrometry) / Wild-type trimeric knob; N-terminal His tag and GSHM omitted. The printed limits D87-P273 do not fit the paper's own residue); experiment: cryo-EM structure; settings: both partners purified
T2 chain: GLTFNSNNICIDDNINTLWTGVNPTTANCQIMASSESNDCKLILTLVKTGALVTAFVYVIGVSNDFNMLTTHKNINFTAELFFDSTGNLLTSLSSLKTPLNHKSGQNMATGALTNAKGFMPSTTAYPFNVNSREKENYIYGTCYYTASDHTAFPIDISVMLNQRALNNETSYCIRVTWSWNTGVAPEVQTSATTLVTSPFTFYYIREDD

[3] = biological target: T3, Human adenovirus serotype 7 fiber knob, His-tagged (His-HAd7K), wild type (human adenovirus serotype 7 (HAdV7), …); experiment: BLI
T3 chain: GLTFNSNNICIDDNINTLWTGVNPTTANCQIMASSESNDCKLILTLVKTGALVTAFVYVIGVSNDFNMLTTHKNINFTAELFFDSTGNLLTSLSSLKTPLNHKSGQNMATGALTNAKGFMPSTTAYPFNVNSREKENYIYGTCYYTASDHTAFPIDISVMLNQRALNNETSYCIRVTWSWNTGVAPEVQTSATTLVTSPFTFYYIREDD

[4] = biological target: T3, Human adenovirus serotype 7 fiber knob, …; experiment: BLI

B1: Human adenovirus serotype 7 fiber knob, His-tagged (His-HAd7K), wild type (domain or fragment)
chain: GLTFNSNNICIDDNINTLWTGVNPTTANCQIMASSESNDCKLILTLVKTGALVTAFVYVIGVSNDFNMLTTHKNINFTAELFFDSTGNLLTSLSSLKTPLNHKSGQNMATGALTNAKGFMPSTTAYPFNVNSREKENYIYGTCYYTASDHTAFPIDISVMLNQRALNNETSYCIRVTWSWNTGVAPEVQTSATTLVTSPFTFYYIREDD
modifications: Wild-type trimeric knob; N-terminal His tag and GSHM omitted. The printed limits D87-P273 do not fit the paper's own residue numbering (V300 and P302 are present in the knob), so the deposited knob …
[1]
  stoichiometry N: 3

B2: EC2-EC3 domains of desmoglein-2 (EC23 module), glycosylated (domain or fragment, UniProt Q14126 149-386, looked up)
chain: VLDINDNEPVFTQDVFVGSVEELSAAHTLVMKINATDADEPNTLNSKISYRIVSLEPAYPPVFYLNKDTGEIYTTSVTLDREEHSSYTLTVEARDGNGEVTDKPVKQAQVQIRILDVNDNIPVVENKVLEGMVEENQVNVEVTRIKVFDADEIGSDNWLANFTFASGNEGGYFHIETDAQTNEGIVTLIKEVDYEEMKNLDFSVIVANKAAFHKSIRSKYKPTPIPIKVKVKNVKEGI
notes: also called EC2-EC3 module; EC23 module of DSG2
[2]
  stoichiometry N: 2 EC23 modules per HAd7K trimer and 3 EC23 modules per HAd7K trimer

B3: Desmoglein-2 (DSG2), non His-tagged, Leinco Technologies (receptor)
chain: AWITAPVALREGEDLSKKNPIAKIHSDLAEERGLKITYKYTGKGITEPPFGIFVFNKDTGELNVTSILDREETPFFLLTGYALDARGNNVEKPLELRIKVLDINDNEPVFTQDVFVGSVEELSAAHTLVMKINATDADEPNTLNSKISYRIVSLEPAYPPVFYLNKDTGEIYTTSVTLDREEHSSYTLTVEARDGNGEVTDKPVKQAQVQIRILDVNDNIPVVENKVLEGMVEENQVNVEVTRIKVFDADEIGSDNWLANFTFASGNEGGYFHIETDAQTNEGIVTLIKEVDYEEMKNLDFSVIVANKAAFHKSIRSKYKPTPIPIKVKVKNVKEGIHFKSSVISIYVSESMDRSSKGQIIGNFQAFDEDTGLPAHARYVKLEDRDNWISVDSVTSEIKLAKLPDFESRYVQNGTYTVKIVAISEDYPRKTITGTVLINVEDINDNCPTLIEPVQTICHDAEYVNVTAEDLDGHPNSGPFSFSVIDKPPGMAEKWKIARQESTSVLLQQSEKKLGRSEIQFLISDNQGFSCPEKQVLTLTVCECLHGSGCREAQHDSYVG
modifications: Wild-type trimeric knob; N-terminal His tag and GSHM omitted. The printed limits D87-P273 do not fit the paper's own residue numbering (V300 and P302 are present in the knob), so the deposited knob entity (same as 3EXW) with the last shaft repeat is used. Entity position = fiber number - 112 (D265=153, F269=157, N192=80), an offset inferred by assuming a 325-residue fiber and comparing with HAd3K.
[3]
  Kd: 4.04 nM
[4]
  koff: 0.000112 s⁻¹
